Measured values taken from patent publication US9371393B2, “Class I anti-CEA antibodies and uses thereof” (Immunomedics, Inc., priority 2009, dated 2016).
One block for each molecule: values may come before it.

Experiments:
[1] = system: SUM1315 breast cancer model; assay: hMN-15 pretreatment and CPT-11 in SUM1315 breast cancer model; assay type: in vivo; conditions: single agent; dosages as in Example 5
Method: The effects of pre-treatment with naked hMN-15 CEA Mab given 3 days prior to CPT-11 treatment is examined in a SUM1315 breast cancer model (Kuperwasser et al., Cancer Res. 2005, 65:6130-38). CPT-11 alone, hMN-15 alone, and combination therapy of hMN-15+CPT-11 where the hMN-15 is administered 3 days prior to the CPT-11 are compared. Dosages are as indicated in Example 5. hMN-15 alone increases median survival time by 21% under these conditions. CPT 11 alone increases survival by 76%. By contrast, the combination therapy where hMN-15 is administered 3 days prior to CPT-11 produces a median survival time increase of an additional 58% above CPT-11 alone. […] The synergistic effect of hMN-15 antibody with CPT-11 therapy is surprising.

[2] = system: RII and RI isoforms of PKA; conditions: Gold 2006; Stokka et al. 2006; cited from earlier work
CEA = molecular target: T1, CEA (Homo sapiens, UniProt P06731); assay: Competitive CEA binding against HRP-labeled murine MN-15; conditions: competition with HRP-labeled murine MN-15
T1 sequence (P06731 35-676): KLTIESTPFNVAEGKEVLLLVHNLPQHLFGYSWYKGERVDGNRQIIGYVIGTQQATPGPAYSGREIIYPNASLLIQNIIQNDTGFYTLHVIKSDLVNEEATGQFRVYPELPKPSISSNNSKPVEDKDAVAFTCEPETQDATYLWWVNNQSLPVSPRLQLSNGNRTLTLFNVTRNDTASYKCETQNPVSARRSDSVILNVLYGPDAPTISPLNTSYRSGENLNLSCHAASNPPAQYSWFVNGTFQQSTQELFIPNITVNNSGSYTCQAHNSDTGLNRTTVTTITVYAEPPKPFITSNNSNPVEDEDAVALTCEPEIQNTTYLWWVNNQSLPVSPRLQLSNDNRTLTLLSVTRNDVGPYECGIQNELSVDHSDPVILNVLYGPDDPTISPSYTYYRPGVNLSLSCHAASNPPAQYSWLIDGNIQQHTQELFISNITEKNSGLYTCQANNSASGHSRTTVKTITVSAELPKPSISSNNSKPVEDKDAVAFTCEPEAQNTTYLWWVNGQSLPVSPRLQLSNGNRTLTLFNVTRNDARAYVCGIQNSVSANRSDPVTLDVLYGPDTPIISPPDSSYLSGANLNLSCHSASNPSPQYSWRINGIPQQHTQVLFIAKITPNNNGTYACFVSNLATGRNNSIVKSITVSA
Source text: To make a chimeric MN-15 antibody, the murine MN-15 variable region sequences were attached to human IgG1 constant region sequences, as described in Leung et al., Hybridoma 13:469 (1994). The sequences of the murine MN-15 VK (SEQ ID NO:9) and MN-15 VH (SEQ ID NO:10) used to construct the chimeric MN-15 (cMN-15) are shown in FIG. 2 and FIG. 3.

[3] = system: liver metastases of sigmoid colon cancer; assay: Sigmoid colon cancer therapy with hMN-15 and GM-CSF, patient two; assay type: in vivo, human; design: blood CEA titer / CEA titer: unit not given here
Method: patient two is a person who is refractive to chemotherapy with 5-fluorouracil and leucovorin to reduce their metastases to the liver found at the time of removal of their sigmoid colon cancer. […] Other radiological studies appear to be normal. Immunotherapy with humanized anti-CEA IgG (hMN-15) monoclonal antibody is begun on a weekly basis for 4 weeks, at an intravenous dose of 300 mg/m^2 infused over 2 hours. One week prior to hMN-15 therapy, the patient receives 2 subcutaneous injections of 200 μg/m^2 GM-CSF, 3 days apart, and continued twice weekly during the 4 weeks of hMN-15 therapy. After these four weeks, both hMN-15 and GM-CSF are given at the same doses every other week for an additional 3 months, but the dose of GM-CSF is increased to 250 μg/m^2. Prior to each administration of the humanized anti-CEA antibody, the patient is given diphenhydramine (50 mg orally), and acetaminophen (500 mg orally).

[4] = system: liver and lung metastases of colon cancer; assay: Combined immunotherapy and chemotherapy of metastatic colon cancer, patient one; assay type: in vivo, human; design: blood CEA titer: unit not given here
Method: patient one is a person presenting with liver and lung metastases of colon cancer following resection of the primary tumor. They are placed on a combined chemotherapy and immunotherapy protocol based on the Gramont schedule (de Gramont et al., J Clin Oncol. 2000, 18:2938-47), but with the addition of humanized anti-CEA monoclonal antibody IgG1 (hMN-15). Prior to infusions of the antibody, they receive 50 mg orally of diphenhydramine and 500 mg orally of acetaminophen. They receive a 2-hr infusion of leucovorin (200 mg/m^2/day) followed by a bolus of 5-fluorouracil (400 mg/m^2/day) and 22-hour continuous infusion of 5-fluorouracil (600 mg/m^2/day) for 2 consecutive days every 2 weeks, together with oxaliplatin at 85 mg/m^2 as a 2-hr infusion in 250 mol of dextrose 5%, concurrent with leukovorin on day 1 (FOLFOX4 schedule). The patient also receives anti-emetic prophylaxis with a 5-hydroxyltryptamine-3-receptor antagonist. One week prior to this 2-week chemotherapy cycle, hMN-15 monoclonal anti-CEA antibody is infused over 2 hrs at a dose of 200 mg/m^2, and repeated each week of the 2-week chemotherapy cycle, and every week thereafter for the next month with another chemotherapy cycle. Also, a subcutaneous dose of 5 μg/kg/day of G-CSF is administered once weekly beginning with the second chemotherapy cycle, and continued at this dose for the duration of immunotherapy with hMN-15 antibody, over the next 3 months.
A total of 5 cycles of chemotherapy is performed with continued administration of hMN-15 antibody and filgrastim. Thereafter, hMN-15 and filgrastim therapy is given, at the same doses, every other week for the next 3 months, without chemotherapy. The patient is staged 2 months later, and their liver and lung metastases show shrinkage by computed tomography measurements of >80 percent of disease measured in the liver and lungs, as compared to the measurements made prior to therapy. […] They are followed over the next 6 months, and their disease appears to be stable, with no new lesions found and no increase in the disease remaining in the liver and lungs. […] The patient also experiences diarrhea, mucositis, nausea and vomiting during the chemotherapy cycles, but these are not excessive.

[5] = system: TT human medullary thyroid cell line tumors; assay: hMN-15 and DTIC in TT medullary thyroid cancer xenografts; assay type: in vivo, nu/nu mice; conditions: at 7 weeks, DTIC 75 μg/dose, hMN-15 100 μg/dose
Method: Tumors are propagated in female nu/nu mice (Taconic Farms, Germantown, N.Y.) at 6-8 weeks of age by s.c. injection of 2×10^8 washed TT cells, which is propagated in tissue culture. Antibodies are injected i.v., via the lateral tail vein, into the tumor-bearing animals. Tumor size is monitored by weekly measurements of the length, width, and depth of the tumor using a caliper. Tumor volume is calculated as the product of the three measurements.
To study whether naked hMN-15 can add to the efficacy of DTIC, TT bearing nude mice are given DTIC (75 μg/dose) in combination with a course of treatment of the unlabeled MAb. DTIC is administered for 3 consecutive days at 75 μg/dose as one course, beginning 2 days after s.c. injection of TT cells. hMN-15 MAb treatment is initiated 3 days prior to the first dose of DTIC, at 100 μg/dose/day for 5 days in the first two weeks, then twice weekly.

[6] = hMN-15 with GM-CSF, restaging after another 2 months

Molecule: CCc1c2c(nc3ccc(OC(=O)N4CCC(N5CCCCC5)CC4)cc13)-c1cc3c(c(=O)n1C2)COC(=O)[C@]3(O)CC [CPT-11, irinotecan, reference compound]
increase of median survival time [1]: 76%

Molecule: DLIEEAASRIVDAVIEQVKAAGAY [Ht-31]
selectivity / affinity for RII versus RI isoform of PKA [2]: greater affinity for the RII isoform of PKA

Molecule: FEELAWKIAKMIWSDVFQQC [PV-38]
selectivity / affinity for RII versus RI isoform of PKA [2]: higher affinity for RI

Molecule: LEQYANQLADQIIKEATE [RIAD]
selectivity / affinity for RII versus RI isoform of PKA [2]: higher affinity for RI

Molecule: QIEYVAKQIVDYAIHQA [SuperAKAP-IS]
selectivity / affinity for RII versus RI isoform of PKA [2]: five order of magnitude higher selectivity for the RII isoform of PKA compared with the RI isoform

affinity for CEA compared with parent murine MN-15 (CEA): virtually identical
dissociation constant (CEA): nanomolar range
B1: hMN-15: humanized MN-15, VK SEQ ID NO:7 and VH SEQ ID NO:8, REI/KOL frameworks, human IgG1 (antibody, V domains shown)
VH: QVQLVESGGGVVQPGRSLRLSCSSSGFALTDYYMSWVRQAPGKGLEWLGFIANKANGHTTDYSPSVKGRFTISRDNSKNTLFLQMDSLRPEDTGVYFCARDMGIRWNFDVWGQGTPVTVSS
VL: DIQLTQSPSSLSASVGDRVTMTCSASSRVSYIHWYQQKPGKAPKRWIYGTSTLASGVPARFSGSGSGTDFTFTISSLQPEDIATYYCQQWSYNPPTFGQGTKVEIKR
modifications: human IgG1 constant regions
increase of median survival time [1]: 21%
decrease of sum of the diameters of the measurable tumors in the liver ([3]; hMN-15 300 mg/m^2 with GM-CSF, first restaging): 40%
adverse reactions ([3]; hMN-15 with GM-CSF): no adverse reactions to the therapy
blood CEA titer ([3]; hMN-15 with GM-CSF, first restaging, at presentation 34 ng/mol): 18
CEA titer [3, 6]: 10
tumor decrease over the pre-therapy baseline [3, 6]: > 65%
shrinkage of liver and lung metastases by computed tomography ([4]; hMN-15 200 mg/m^2 with FOLFOX4 schedule and G-CSF (filgrastim)): > 80%
adverse events when only immunotherapy is administered ([4]; hMN-15 and filgrastim without chemotherapy): does not experience any adverse events
predominant toxicity ([4]; hMN-15 with FOLFOX4 and filgrastim, during chemotherapy cycles): peripheral sensory neuropathy
blood CEA titer ([4]; hMN-15 with FOLFOX4 and filgrastim, pre-therapy level 63 ng/mol): 9
mice with no palpable tumor ([5]; untreated 0/10): 0/10
mean tumor volume ([5]; untreated 1.578+0.959): 0.899+0.545 cm^3

affinity for CEA compared with parent murine MN-15 (CEA): virtually identical
dissociation constant (CEA): nanomolar range
B2: cMN-15: murine MN-15 variable regions (SEQ ID NO:9, SEQ ID NO:10) attached to human IgG1 constant regions (antibody, listed as Mus sp., V domains shown)
VL: DIQLTQSPAIMSASPGEKVTMTCSASSRVSYIHWYQQKSGTSPKRWIYGTSTLASGVPARFSGSGSGTSYSLTISSMEAEDAATYYCQQWSYNPPTFGAGTKLELKR
VH: EVRLVESGGGLVQGPGSLRLSCAASGFALTDYYMSWVRQSPGKTLEWLGFIANKANGHTTDYSPSVKGRFTISRDNSQTILYLQMNTLRTEDSATYYCARDMGIRWNFDVWGQGTTVTVSS
modifications: human IgG1 constant regions
